Measurements taken from patent US20190038704A1.

Experiments:
[1] = target: EphA4 on neurons of embryonic day 6 chicken nasal retinal explants (chicken) (UniProt Q07496); assay: cell-based or functional assay
[2] = target: mouse EphA4 ectodomain fused to Fc (mouse) (UniProt Q03137); assay: competition ELISA: ephrin-A5 AP binding to immobilized EphA4 Fc
Sequence of mouse EphA4 ectodomain fused to Fc (mouse) (Q03137 20-547): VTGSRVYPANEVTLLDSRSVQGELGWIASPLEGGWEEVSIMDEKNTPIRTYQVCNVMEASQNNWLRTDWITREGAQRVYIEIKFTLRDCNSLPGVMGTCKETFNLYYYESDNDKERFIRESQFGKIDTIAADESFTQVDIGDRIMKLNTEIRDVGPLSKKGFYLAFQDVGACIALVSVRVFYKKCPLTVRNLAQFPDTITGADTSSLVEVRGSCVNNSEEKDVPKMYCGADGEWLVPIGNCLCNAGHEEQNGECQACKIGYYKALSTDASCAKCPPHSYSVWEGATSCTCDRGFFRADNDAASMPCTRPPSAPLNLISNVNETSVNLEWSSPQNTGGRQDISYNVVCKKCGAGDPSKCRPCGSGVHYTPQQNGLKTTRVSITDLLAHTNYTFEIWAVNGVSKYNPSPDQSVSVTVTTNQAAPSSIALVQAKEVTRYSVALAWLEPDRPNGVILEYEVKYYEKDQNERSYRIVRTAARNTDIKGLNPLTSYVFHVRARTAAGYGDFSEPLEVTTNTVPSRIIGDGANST

Sequence of EphA4 on neurons of embryonic day 6 chicken nasal retinal explants (chicken) (Q07496 20-986): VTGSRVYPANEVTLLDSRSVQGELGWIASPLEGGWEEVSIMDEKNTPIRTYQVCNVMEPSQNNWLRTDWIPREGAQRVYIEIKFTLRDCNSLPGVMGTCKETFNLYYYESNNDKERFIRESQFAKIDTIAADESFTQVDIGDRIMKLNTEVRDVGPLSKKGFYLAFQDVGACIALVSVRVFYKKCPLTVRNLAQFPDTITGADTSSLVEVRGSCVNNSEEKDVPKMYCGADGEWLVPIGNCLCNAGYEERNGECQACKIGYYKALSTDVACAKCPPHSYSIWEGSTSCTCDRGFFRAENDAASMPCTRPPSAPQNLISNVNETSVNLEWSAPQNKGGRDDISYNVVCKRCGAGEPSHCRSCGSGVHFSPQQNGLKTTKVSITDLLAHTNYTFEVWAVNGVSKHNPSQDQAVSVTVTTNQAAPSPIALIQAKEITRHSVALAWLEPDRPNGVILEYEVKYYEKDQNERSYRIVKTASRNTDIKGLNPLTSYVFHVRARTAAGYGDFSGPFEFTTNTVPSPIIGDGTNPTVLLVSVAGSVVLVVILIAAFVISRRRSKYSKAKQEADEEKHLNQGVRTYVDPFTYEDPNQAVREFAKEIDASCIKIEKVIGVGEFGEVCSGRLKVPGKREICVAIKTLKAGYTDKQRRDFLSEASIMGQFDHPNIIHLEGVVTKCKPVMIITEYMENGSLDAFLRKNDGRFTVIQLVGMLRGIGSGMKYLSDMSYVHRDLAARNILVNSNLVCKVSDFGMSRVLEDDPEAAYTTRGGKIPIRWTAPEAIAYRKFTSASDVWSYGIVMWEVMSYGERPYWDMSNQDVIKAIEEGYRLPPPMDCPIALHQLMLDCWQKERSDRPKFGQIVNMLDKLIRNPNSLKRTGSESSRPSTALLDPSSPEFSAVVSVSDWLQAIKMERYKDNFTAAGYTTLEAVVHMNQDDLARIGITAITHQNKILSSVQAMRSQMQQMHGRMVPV
Sequence of ephrin-A5 Fc (Fc fusion) (P52803 21-203): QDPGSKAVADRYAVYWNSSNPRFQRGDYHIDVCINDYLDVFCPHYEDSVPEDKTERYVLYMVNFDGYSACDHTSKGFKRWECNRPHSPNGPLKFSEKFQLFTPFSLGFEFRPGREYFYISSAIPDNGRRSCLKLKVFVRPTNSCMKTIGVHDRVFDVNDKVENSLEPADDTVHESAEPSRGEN

percent collapsed growth cones, chicken nasal retinal explants (experiment with APY-d3.am) [1]	percent collapsed growth cones, chicken nasal retinal explants (experiment with APY-βAla8.am) [1]	IC50 [2]	Substance
70%	65%		ephrin-A5 Fc (Fc fusion)
		70 nM	βAla1-PY-Lys7-βAla8.am (peptide)
